This is an account of results in PMC12752648.

In data set [1] the target is oncolytic virus M1 (OVM) virions. Kind of data set: virus binding to cells measured by qRT-PCR. The conditions noted are these: 22Rv1 cells expressing TPRA1 variants; parent: est. 1.4; read off a plot.
A short description of data set [2]: GFP-positive 22Rv1 cells by flow cytometry, 48 h. The conditions noted are these: glycan lost; control: wild-type TPRA1.
For data set [3], the target named is oncolytic virus M1 (OVM) virions (oncolytic virus M1 (Getah-like alphavirus)). Kind of data set: BLI; Octet RED96e; OVM loaded on aminopropylsilane (APS) biosensors in PBS; TPRA1-ECD-Fc (0.5-8 µM) or Fc (8 µM) in PBS with 0.02% Tween-20 and 1 mg/mL BSA; 1:1 binding model. (In general: BLI is a label-free optical method that tracks binding on a fibre tip over time.)

In the case of “HA-tagged full-length TPRA1 (from UniProt Q86W33-1) N11Q; N23Q”, in data set [1], the other: Relative change in binding stood at 0.35.
For the substance “TPRA1 (transmembrane protein adipocyte-associated 1): N11/23Q”, the “other: susceptibility of cells to viral infection” value in data set [2] is reported as “decreases”.
With “recombinant extracellular domain of TPRA1 fused to an Fc tag (TPRA1-ECD-Fc) (from UniProt Q86W33-1 1-47) (Fc fusion)”, in data set [3], the dissociation constant (Kd) was 91 nM.

By Kd is commonly meant the equilibrium constant for the complex coming apart. A high value points to lower affinity.
